{
  "source": "patent US20050048548A1",
  "about": "(NEW ENGLAND BIOLABS, published 2005)",
  "binders": {"B1": {"name": "non-displaying M13 phage (no insert), without selenocysteine (other, bacteriophage M13, UniProt P69168 19-424, looked up)", "chain": "AETVESCLAKPHTENSFTNVWKDDKTLDRYANYEGCLWNATGVVVCTGDETQCYGTWVPIGLAIPENEGGGSEGGGSEGGGSEGGGTKPPEYGDTPIPGYTYINPLDGTYPPGTEQNPANPNPSLEESQPLNTFMFQNNRFRNRQGALTVYTGTVTQGTDPVKTYYQYTPVSSKAMYDAYWNGKFRDCAFHSGFNEDPFVCEYQGQSSDLPQPPVNAGGGSGGGSGGGSEGGGSEGGGSEGGGSEGGGSGGGSGSGDFDYEKMANANKGAMTENADENALQSDAKGKLDSVATDYGAAIDGFIGDVSGLANGNGATGDFAGSNSQMAQVGDGDNSPLMNNFRQYLPSLPQSVECRPFVFSAGKPYEFSIDCDKINLFRGVFAFLLYVATFMYVFSTFANILRNKES", "notes": "Control; whole phage, applied both after treatment with the biotinylating reagent and untreated; also called non-displaying phage"}},
  "target": "T1, MBP-BirA fusion (E. coli biotin ligase / biotin holoenzyme synthetase with N-terminal maltose binding protein) (E. coli, UniProt P0AEX9 27-392 = MBP; P06709 1-321, limits assumed)",
  "T1 construct": "also called BHS",
  "experiment": "phage ELISA on plate-coated MBP-BirA, anti-M13-HRP detection",
  "data": [
    {"binder": "B1", "values": [
      {"measurement": "binding result", "value": "no binding"}
    ]}
  ]
}
